From patent publication US20030135880A1, “Compositions and methods for halogenation reactions” (priority 2002, published 2003)

How the values were obtained:
[1] = molecular target: T1, PrnA (Pseudomonas fluorescens, UniProt P95480); test: Activation of PrnA by electron transferases, 2 h assay (Example 2); format: biochemical; details: 20 microliter PrnA, 50 microliter NADH, 50 microliter electron transferase, room temperature
T1 construct: made in house; host or cells: Pseudomonas fluorescens BL915deltaORF1-4 with plasmid pPEH14 (prnA)
Method: The following components are used in examples 1-4 below: PrnA (described for Example 1 above) at 0.36 mg/ml, Assay Mixture containing HEPES (100 mM), glucose-6-phosphate, disodium salt (50 mM), D-Trp (5 mM), NaCl (5 mM). Aspergillus niger catalase (39 U/ml), bovine erythrocyte superoxide dismutase (15 U/ml), Leuconostoc mesenteroides glucose-6-phosphate dehydrogenase (10 U/ml). NADH-(3 mg/ml) NADPH (3 mg/ml).
Each assay contains the assay mixture, either NADH (for samples containing Fre and the NAD(P)H:FMN reductase) or NADPH (for samples containing FNR or FNR and Fd), PrnA and the indicated electron transferase. Negative control samples are incubated in parallel; these substituted buffer for PrnA. Quantification standards are prepared by diluting 0,1, 2 or 5 microliter of 7-Cl-Trp standard (1 mM) in 100 microliter Assay Mixture, 50 microliter NADH, 20 microliter PrnA and 50 microliter buffer; the tubes were heated to 100 C. prior to addition of PrnA, then heated an additional 2 min. Further processing is in parallel with the enzymatic reactions. All samples are mixed for 2 h at room temperature. Reactions are stopped and samples processed as described above in Example 1, including using the HPLC Analytical method PrnA1 as described in Example 1.

[2] = molecular target: T2, PrnC (Pseudomonas fluorescens, UniProt P95482); test: In vitro halogenation with PrnC: chlorination of MDA to APRN (Example 3); format: biochemical, P. fluorescens; details: Extract #2 (PrnC depleted of P2) plus 20 microliter electron transferase, NADH, overnight
T2 construct: made in house; host or cells: P. fluorescens (pPEH/prnC/134Δprn), plasmid pPEH-PrnC with tac promoter
T2 sequence (P95482 whole entry, looked up): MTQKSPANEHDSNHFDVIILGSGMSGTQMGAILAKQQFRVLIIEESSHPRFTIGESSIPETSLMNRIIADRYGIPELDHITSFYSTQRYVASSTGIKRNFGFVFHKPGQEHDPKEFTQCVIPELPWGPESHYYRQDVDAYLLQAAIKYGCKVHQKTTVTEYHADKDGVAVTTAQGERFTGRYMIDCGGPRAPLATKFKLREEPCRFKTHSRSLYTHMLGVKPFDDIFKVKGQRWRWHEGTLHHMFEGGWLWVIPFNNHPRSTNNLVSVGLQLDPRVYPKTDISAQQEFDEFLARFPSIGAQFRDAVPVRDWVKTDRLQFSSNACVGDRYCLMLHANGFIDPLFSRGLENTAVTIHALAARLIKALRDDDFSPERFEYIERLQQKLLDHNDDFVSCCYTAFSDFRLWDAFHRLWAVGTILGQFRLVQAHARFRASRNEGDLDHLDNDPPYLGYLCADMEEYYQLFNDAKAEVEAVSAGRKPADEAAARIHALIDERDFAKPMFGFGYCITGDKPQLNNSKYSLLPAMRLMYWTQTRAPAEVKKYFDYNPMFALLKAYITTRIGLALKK
Method: Fre, ferrodoxin NADP reductase, ferrodoxin and NADPH FMN-reductase are tested for the ability to activate P. fluorescens PrnC that was depleted of endogenous electron transferase (P2) as described below. PrnC catalyzes chlorination of monodechloroaminopyrrolnitrin (MDA) to yield aminopyrrolnitrin (APRN).
The following materials are prepared for use in assays described below. Buffer 100 mM Tris/Cl, 1 mM EDTA. pH 7.5. Monodechloroaminopyrrolnitrin (MDA) 74.2 mM is prepared by culture of Pseudomonas fluorescens expressing PrnA and PrnB as described in (Kirner et al,1998) which is herein incorporated by reference in its entirety. The assay mix comprises FAD (5 μM) and MDA (742 μM) in buffer. […]
The assays described below are run as follows; Extract #2 is mixed with the indicated electron transferase, assay mix and either NADH or NADPH as indicated. The native activity of PrnC prior to removal of the P2 activity is determined by a parallel sample in which extract #1 is mixed with assay mix and NADH. […] Samples are analyzed by PrnC_Iso method described below. The 220 nm absorbance chromatogram is analyzed and integrated. PrnC activity is expressed as 100 times the ratio of the APRN peak area to the sum of the peak areas of APRN and MDA. Assuming equal extinction coefficients at 220 nm the calculated ratio is equivalent to the net % conversion of MDA to APRN by halogenation. […]

T1 sequence (P95480 whole entry): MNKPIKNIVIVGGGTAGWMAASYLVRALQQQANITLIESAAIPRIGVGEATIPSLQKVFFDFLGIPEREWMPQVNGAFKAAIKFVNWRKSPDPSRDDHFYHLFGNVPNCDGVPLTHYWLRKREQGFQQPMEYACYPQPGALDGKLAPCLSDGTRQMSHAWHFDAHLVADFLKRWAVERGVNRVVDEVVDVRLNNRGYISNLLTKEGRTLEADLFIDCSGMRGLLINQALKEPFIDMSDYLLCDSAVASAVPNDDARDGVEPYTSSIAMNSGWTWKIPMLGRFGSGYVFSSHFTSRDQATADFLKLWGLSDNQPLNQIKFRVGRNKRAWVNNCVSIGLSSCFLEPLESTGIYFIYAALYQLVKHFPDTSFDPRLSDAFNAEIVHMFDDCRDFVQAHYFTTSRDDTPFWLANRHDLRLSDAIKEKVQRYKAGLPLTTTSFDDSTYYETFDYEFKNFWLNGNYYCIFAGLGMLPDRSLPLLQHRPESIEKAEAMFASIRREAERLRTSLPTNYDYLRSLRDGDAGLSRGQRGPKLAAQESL

Substance: ferrodoxin NADP reductase and ferrodoxin: Spinach ferredoxin NADP reductase used together with spinach ferredoxin (Fd)
- Net 7-Cl-Trp produced [1]: 9.15 nmol
- PrnC activity, conversion of MDA to APRN [2]: 2.5%
